B1: FXR: Farnesoid X Receptor (NR1H4), cDNA driver (protein, UniProt Q96RI1 1-486, looked up)
Bile acid receptor: MVMQFQGLENPIQISPHCSCTPSGFFMEMMSMKPAKGVLTEQVAGPLGQNLEVEPYSQYSNVQFPQVQPQISSSSYYSNLGFYPQQPEEWYSPGIYELRRMPAETLYQGETEVAEMPVTKKPRMGASAGRIKGDELCVVCGDRASGYHYNALTCEGCKGFFRRSITKNAVYKCKNGGNCVMDMYMRRKCQECRLRKCKEMGMLAECMYTGLLTEIQCKSKRLRKNVKQHADQTVNEDSEGRDLRQVTSTTKSCREKTELTPDQQTLLHFIMDSYNKQRMPQEITNKILKEEFSAEENFLILTEMATNHVQVLVEFTKKLPGFQTLDHEDQIALLKGSAVEAMFLRSAEIFNKKLPSGHSDLLEERIRNSGISDEYITPMFSFYKSIGELKMTQEEYALLTAIVILSPDRQYIKDREAVEKLQEPLLDVLQKLCKIHQPENPQHFACLLGRLTELRTFNHHHAEMLMSWRVNDHKFTPLLCEIWDVQ
B2: RARb: Retinoic acid receptor β (NR1B2), nuclear hormone receptor cDNA driver (protein, UniProt P10826 1-455, looked up)
Retinoic acid receptor beta: MTTSGHACPVPAVNGHMTHYPATPYPLLFPPVIGGLSLPPLHGLHGHPPPSGCSTPSPATIETQSTSSEELVPSPPSPLPPPRVYKPCFVCQDKSSGYHYGVSACEGCKGFFRRSIQKNMIYTCHRDKNCVINKVTRNRCQYCRLQKCFEVGMSKESVRNDRNKKKKETSKQECTESYEMTAELDDLTEKIRKAHQETFPSLCQLGKYTTNSSADHRVRLDLGLWDKFSELATKCIIKIVEFAKRLPGFTGLTIADQITLLKAACLDILILRICTRYTPEQDTMTFSDGLTLNRTQMHNAGFGPLTDLVFTFANQLLPLEMDDTETGLLSAICLICGDRQDLEEPTKVDKLQEPLLEALKIYIRKRRPSKPHMFPKILMKITDLRSISAKGAERVITLKMEIPGSMPPLIQEMLENSEGHEPLTPSSSGNTAEHSPSISPSSVENSGVSQSPLVQ
B3: RARg: Retinoic acid receptor γ (NR1B3), nuclear hormone receptor cDNA driver (protein, UniProt P13631 1-454, looked up)
Retinoic acid receptor gamma: MATNKERLFAAGALGPGSGYPGAGFPFAFPGALRGSPPFEMLSPSFRGLGQPDLPKEMASLSVETQSTSSEEMVPSSPSPPPPPRVYKPCFVCNDKSSGYHYGVSSCEGCKGFFRRSIQKNMVYTCHRDKNCIINKVTRNRCQYCRLQKCFEVGMSKEAVRNDRNKKKKEVKEEGSPDSYELSPQLEELITKVSKAHQETFPSLCQLGKYTTNSSADHRVQLDLGLWDKFSELATKCIIKIVEFAKRLPGFTGLSIADQITLLKAACLDILMLRICTRYTPEQDTMTFSDGLTLNRTQMHNAGFGPLTDLVFAFAGQLLPLEMDDTETGLLSAICLICGDRMDLEEPEKVDKLQEPLLEALRLYARRRRPSQPYMFPRMLMKITDLRGISTKGAERAITLKMEIPGPMPPLIREMLENPEMFEDDSSQPGPHPNASSEDEVPGGQGKGGLKSPA
B4: PPARd: Peroxisome proliferator activated receptor δ (NR1C2), cDNA driver (protein, UniProt Q03181 1-441, looked up)
Peroxisome …: MEQPQEEAPEVREEEEKEEVAEAEGAPELNGGPQHALPSSSYTDLSRSSSPPSLLDQLQMGCDGASCGSLNMECRVCGDKASGFHYGVHACEGCKGFFRRTIRMKLEYEKCERSCKIQKKNRNKCQYCRFQKCLALGMSHNAIRFGRMPEAEKRKLVAGLTANEGSQYNPQVADLKAFSKHIYNAYLKNFNMTKKKARSILTGKASHTAPFVIHDIETLWQAEKGLVWKQLVNGLPPYKEISVHVFYRCQCTTVETVRELTEFAKSIPSFSSLFLNDQVTLLKYGVHEAIFAMLASIVNKDGLLVANGSGFVTREFLRSLRKPFSDIIEPKFEFAVKFNALELDDSDLALFIAAIILCGDRPGLMNVPRVEAIQDTILRALEFHLQANHPDAQYLFPKLLQKMADLRQLVTEHAQMMQRIKKTETETSLHPLLQEIYKDMY
B5: RARa: Retinoic acid receptor α (NR1B1), nuclear hormone receptor cDNA driver (protein, UniProt P10276 1-462, looked up)
Retinoic acid receptor alpha: MASNSSSCPTPGGGHLNGYPVPPYAFFFPPMLGGLSPPGALTTLQHQLPVSGYSTPSPATIETQSSSSEEIVPSPPSPPPLPRIYKPCFVCQDKSSGYHYGVSACEGCKGFFRRSIQKNMVYTCHRDKNCIINKVTRNRCQYCRLQKCFEVGMSKESVRNDRNKKKKEVPKPECSESYTLTPEVGELIEKVRKAHQETFPALCQLGKYTTNNSSEQRVSLDIDLWDKFSELSTKCIIKTVEFAKQLPGFTTLTIADQITLLKAACLDILILRICTRYTPEQDTMTFSDGLTLNRTQMHNAGFGPLTDLVFAFANQLLPLEMDDAETGLLSAICLICGDRQDLEQPDRVDMLQEPLLEALKVYVRKRRPSRPHMFPKMLMKITDLRSISAKGAERVITLKMEIPGSMPPLIQEMLENSEGLDTLSGQPGGGGRDGGGLAPPPGSCSPSLSPSSNRSSPATHSP

The molecules below were run on mUCP1 promoter (assay: NHR-promoter luciferase screen, mUCP1 promoter). Settings: mUCP1 promoter reporter; co-transfected HR, with or without its ligand.
Assay type: cell-based, mouse
How it was run: (§1)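 CV-1 cells were co-transfected with 50 ng NHR (homodimer or NHR/RXR heterodimer), 100 ng promoter-luciferase construct and 50 ng LacZ. Luciferase was normalized to LacZ and to a no-NHR/no-ligand control.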

| Molecule | Luc. act., normalized to lacZ |
| --- | --- |
| B1 | 4.2 |
| B2 | 4.4 |
| B3 | 5.0 |
| B4 | 3.5 |
| B5 | 2.8 |

Same assay, conditions: mUCP1 promoter reporter; co-transfected HR, with or without its ligand; relative to control

| Molecule | Normalized Luc. act., normalized to control |
| --- | --- |
| B1 | 1.0 |
| B2 | 1.0 |
| B3 | 1.1 |
| B4 | 0.8 |
| B5 | 0.6 |

Same assay, conditions: mUCP! promoter-luciferase, CV-1 cells, NHR +/- ligand, control = 1.00

| Molecule | luciferase activity normalized to lacZ activity and to a control, mUCP! |
| --- | --- |
| B1 | 0.95 |
| B2 | 1.00 |
| B3 | 1.13 |
| B4 | 0.79 |
| B5 | 0.63 |

What follows are molecules tested on mPgc1b promoter (assay: NHR-promoter luciferase screen, mPgc1b promoter). Settings: PGC1b promoter reporter; co-transfected HR, without or with its ligand.
Assay type: cell-based, mouse
How it was run: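 CV-1 cells co-transfected with NHR homodimer or NHR/RXR heterodimer (pcDNA3.1, C-terminal V5H6 tag), promoter-luciferase construct and LacZ transfection control. Orphan receptors screened without ligand. Luciferase normalized to LacZ and to no-NHR/no-ligand control.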

| Molecule | Luc. act., normalized to lacZ |
| --- | --- |
| B1 | 7.82 |
| B2 | 14.32 |
| B3 | 12.70 |
| B4 | 7.88 |
| B5 | 12.69 |

Same assay, conditions: PGC1b promoter reporter; co-transfected HR, without or with its ligand; relative to control

| Molecule | Normalized Luc. act., normalized to control |
| --- | --- |
| B1 | 0.7 |
| B2 | 1.2 |
| B3 | 1.1 |
| B4 | 0.7 |
| B5 | 1.1 |

Same assay, conditions: mPgc1b promoter-luciferase, CV-1 cells, NHR +/- ligand, control = 1.00

| Molecule | luciferase activity normalized to lacZ activity and to a control, mPgc1b |
| --- | --- |
| B1 | 0.66 |
| B2 | 1.21 |
| B3 | 1.07 |
| B4 | 0.67 |
| B5 | 1.07 |

The molecules below were run on mGhrelin promoter (assay: NHR-promoter luciferase screen, mGhrelin promoter). Settings: Table 8; mGhrelin.
Assay type: cell-based, mouse
How it was run: as §1

| Molecule | Luc. act., normalized to lacZ | Normalized Luc. act., normalized to control |
| --- | --- | --- |
| B1 | 65.7 | 1.3 |
| B2 | 84.4 | 1.6 |
| B3 | 88.8 | 1.7 |
| B4 | 56.1 | 1.1 |
| B5 | 67.2 | 1.3 |

Same assay, conditions: Table 6d; luciferase activity relative to control (control = 1.00)

| Molecule | Results of assays of transcription factor (+/- ligand) with mGhrelin |
| --- | --- |
| B1 | 1.26 |
| B2 | 1.61 |
| B3 | 1.70 |
| B4 | 1.07 |
| B5 | 1.29 |

Each molecule was assayed on mAgrp promoter (assay: NHR-promoter luciferase screen, mAgrp promoter). Settings: Table 6d; luciferase activity relative to control (control = 1.00).
Assay type: cell-based, mouse
How it was run: as §1

| Molecule | Results of assays of transcription factor (+/- ligand) with mAgrp |
| --- | --- |
| B1 | 1.14 |
| B2 | 2.27 |
| B3 | 2.06 |
| B4 | 1.32 |
| B5 | 2.05 |

Same assay, conditions: mAgrp promoter; HR component with or without ligand

| Molecule | Luc. act., normalized to lacZ |
| --- | --- |
| B1 | 45.1 |
| B2 | 90.2 |
| B3 | 81.9 |
| B4 | 52.4 |
| B5 | 81.1 |

Same assay, conditions: mAgrp promoter; HR component with or without ligand; relative to control

| Molecule | Normalized Luc. act., normalized to control |
| --- | --- |
| B1 | 1.1 |
| B2 | 2.3 |
| B3 | 2.1 |
| B4 | 1.3 |
| B5 | 2.0 |

Each molecule was assayed on mAdiponectin promoter (assay: NHR-promoter luciferase screen, mAdiponectin promoter). Settings: Adiponectin; HR component without or with its ligand.
Assay type: cell-based, mouse
How it was run: as §1

| Molecule | Luc. act., normalized to lacZ | Normalized Luc. act., normalized to control |
| --- | --- | --- |
| B1 | 62.6 | 1.0 |
| B2 | 81.2 | 1.3 |
| B3 | 62.6 | 1.0 |
| B4 | 89.4 | 1.4 |
| B5 | 78.6 | 1.3 |

Same assay, conditions: transcription factor +/- ligand; control = 1.00

| Molecule | mAdiponectin promoter reporter activity |
| --- | --- |
| B1 | 1.00 |
| B2 | 1.29 |
| B3 | 1.00 |
| B4 | 1.42 |
| B5 | 1.25 |
